{"source": "IntAct's records for PubMed 23809763", "parents": {"B1": {"name": "R-spondin-1 (Homo sapiens), Q2MKA7 (parent)", "chain": "MRLGLCVVALVLSWTHLTISSRGIKGKRQRRISAEGSQACAKGCELCSEVNGCLKCSPKLFILLERNDIRQVGVCLPSCPPGYFDARNPDMNKCIKCKIEHCEACFSHNFCTKCKEGLYLHKGRCYPACPEGSSAANGTMECSSPAQCEMSEWSPWGPCSKKQQLCGFRRGSEERTRRVLHAPVGDHAACSDTKETRRCTVRRVPCPEGQKRRKGGQGRRENANRNLARKESKEAGAGSRRRKGQQQQQQQGTVGPLTSAGPA", "partner": "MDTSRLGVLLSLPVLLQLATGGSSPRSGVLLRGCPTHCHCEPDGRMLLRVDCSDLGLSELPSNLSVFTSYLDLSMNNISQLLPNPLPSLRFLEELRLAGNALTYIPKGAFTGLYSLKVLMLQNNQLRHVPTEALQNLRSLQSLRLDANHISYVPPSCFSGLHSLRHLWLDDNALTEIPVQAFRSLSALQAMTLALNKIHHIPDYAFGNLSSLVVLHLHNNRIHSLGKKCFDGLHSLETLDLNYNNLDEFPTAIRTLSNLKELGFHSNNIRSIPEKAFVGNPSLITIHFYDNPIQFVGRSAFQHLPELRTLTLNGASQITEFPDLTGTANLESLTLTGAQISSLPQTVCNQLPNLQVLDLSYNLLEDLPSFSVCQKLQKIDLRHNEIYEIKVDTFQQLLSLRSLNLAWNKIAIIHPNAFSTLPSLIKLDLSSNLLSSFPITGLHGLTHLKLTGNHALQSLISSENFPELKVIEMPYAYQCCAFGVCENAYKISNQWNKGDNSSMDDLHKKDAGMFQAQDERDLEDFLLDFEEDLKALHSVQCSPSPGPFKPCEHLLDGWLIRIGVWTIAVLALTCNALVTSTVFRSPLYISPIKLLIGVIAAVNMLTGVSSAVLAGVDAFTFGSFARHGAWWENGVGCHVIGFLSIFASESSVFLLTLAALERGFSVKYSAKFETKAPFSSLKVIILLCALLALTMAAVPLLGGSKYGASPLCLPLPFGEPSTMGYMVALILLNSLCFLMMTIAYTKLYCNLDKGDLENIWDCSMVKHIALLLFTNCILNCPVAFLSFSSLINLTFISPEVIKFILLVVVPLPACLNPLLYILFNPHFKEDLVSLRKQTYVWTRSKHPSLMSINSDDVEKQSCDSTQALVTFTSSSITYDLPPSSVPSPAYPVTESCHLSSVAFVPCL"}}}
{"variants_of": "B1", "settings": "with lgr5_human LGR5, O75473"}
{"variant": "MRLGLCVVALVLSWTHLTISSRGIKGKRQRRISAEGSQACAKGCELCSEVNGCLKCSPKLFILLERNDIRQVGVCLPSCPPEYFDARNPDMNKCIKCKIEHCEACFSHNFCTKCKEGLYLHKGRCYPACPEGSSAANGTMECSSPAQCEMSEWSPWGPCSKKQQLCGFRRGSEERTRRVLHAPVGDHAACSDTKETRRCTVRRVPCPEGQKRRKGGQGRRENANRNLARKESKEAGAGSRRRKGQQQQQQQGTVGPLTSAGPA", "note": "[G82E]", "effect of a mutation on the interaction": "with no effect"}
{"variant": "MRLGLCVVALVLSWTHLTISSRGIKGKRQRRISAEGSQACAKGCELCSEVNGCLKCSPKLFILLERNDICQVGVCLPSCPPGYFDARNPDMNKCIKCKIEHCEACFSHNFCTKCKEGLYLHKGRCYPACPEGSSAANGTMECSSPAQCEMSEWSPWGPCSKKQQLCGFRRGSEERTRRVLHAPVGDHAACSDTKETRRCTVRRVPCPEGQKRRKGGQGRRENANRNLARKESKEAGAGSRRRKGQQQQQQQGTVGPLTSAGPA", "note": "[R70C]", "effect of a mutation on the interaction": "with no effect"}
{"variant": "MRLGLCVVALVLSWTHLTISSRGIKGKRQRRISAEGSQACAKGCELCSEVNGCLKCSPKLFILLERNDIAQVGVCLPSCPPGYFDARNPDMNKCIKCKIEHCEACFSHNFCTKCKEGLYLHKGRCYPACPEGSSAANGTMECSSPAQCEMSEWSPWGPCSKKQQLCGFRRGSEERTRRVLHAPVGDHAACSDTKETRRCTVRRVPCPEGQKRRKGGQGRRENANRNLARKESKEAGAGSRRRKGQQQQQQQGTVGPLTSAGPA", "note": "[R70A]", "effect of a mutation on the interaction": "decreasing interaction strength"}
{"variant": "MRLGLCVVALVLSWTHLTISSRGIKGKRQRRISAEGSQACAKGCELCSEVNGCLKCSPKLFILLERNDIEQVGVCLPSCPPGYFDARNPDMNKCIKCKIEHCEACFSHNFCTKCKEGLYLHKGRCYPACPEGSSAANGTMECSSPAQCEMSEWSPWGPCSKKQQLCGFRRGSEERTRRVLHAPVGDHAACSDTKETRRCTVRRVPCPEGQKRRKGGQGRRENANRNLARKESKEAGAGSRRRKGQQQQQQQGTVGPLTSAGPA", "note": "[R70E]", "effect of a mutation on the interaction": "with no effect"}
{"variant": "MRLGLCVVALVLSWTHLTISSRGIKGKRQRRISAEGSQACAKGCELCSEVNGCLKCSPKLFILLEWNDIRQVGVCLPSCPPGYFDARNPDMNKCIKCKIEHCEACFSHNFCTKCKEGLYLHKGRCYPACPEGSSAANGTMECSSPAQCEMSEWSPWGPCSKKQQLCGFRRGSEERTRRVLHAPVGDHAACSDTKETRRCTVRRVPCPEGQKRRKGGQGRRENANRNLARKESKEAGAGSRRRKGQQQQQQQGTVGPLTSAGPA", "note": "[R66W]", "effect of a mutation on the interaction": "with no effect"}
{"variant": "MRLGLCVVALVLSWTHLTISSRGIKGKRQRRISAEGSQACAKGCELCSEVNGCLKCSPKLFILLEANDIRQVGVCLPSCPPGYFDARNPDMNKCIKCKIEHCEACFSHNFCTKCKEGLYLHKGRCYPACPEGSSAANGTMECSSPAQCEMSEWSPWGPCSKKQQLCGFRRGSEERTRRVLHAPVGDHAACSDTKETRRCTVRRVPCPEGQKRRKGGQGRRENANRNLARKESKEAGAGSRRRKGQQQQQQQGTVGPLTSAGPA", "note": "[R66A]", "effect of a mutation on the interaction": "with no effect"}
{"variant": "MRLGLCVVALVLSWTHLTISSRGIKGKRQRRISAEGSQACAKGCELCSEVNGCLKCSPKLFILLERNDIRQVGVCLPSCPPGYFDARNPDMNKCIKCKIEHCEACESHNFCTKCKEGLYLHKGRCYPACPEGSSAANGTMECSSPAQCEMSEWSPWGPCSKKQQLCGFRRGSEERTRRVLHAPVGDHAACSDTKETRRCTVRRVPCPEGQKRRKGGQGRRENANRNLARKESKEAGAGSRRRKGQQQQQQQGTVGPLTSAGPA", "note": "[F106E]", "effect of a mutation on the interaction": "disrupting interaction strength"}
{"variant": "MRLGLCVVALVLSWTHLTISSRGIKGKRQRRISAEGSQACAKGCELCSEVNGCLKCSPKLFILLERNDIRQVGVCLPSCPPGYFDARNPDMNKCIKCKIEHCEACFSHNECTKCKEGLYLHKGRCYPACPEGSSAANGTMECSSPAQCEMSEWSPWGPCSKKQQLCGFRRGSEERTRRVLHAPVGDHAACSDTKETRRCTVRRVPCPEGQKRRKGGQGRRENANRNLARKESKEAGAGSRRRKGQQQQQQQGTVGPLTSAGPA", "note": "[F110E]", "effect of a mutation on the interaction": "disrupting interaction strength"}
{"variant": "MRLGLCVVALVLSWTHLTISSRGIKGKRQRRISAEGSQACAKGCELCSEVNGCLKCSPKLFILLERNDIRQVEVCLPSCPPGYFDARNPDMNKCIKCKIEHCEACFSHNFCTKCKEGLYLHKGRCYPACPEGSSAANGTMECSSPAQCEMSEWSPWGPCSKKQQLCGFRRGSEERTRRVLHAPVGDHAACSDTKETRRCTVRRVPCPEGQKRRKGGQGRRENANRNLARKESKEAGAGSRRRKGQQQQQQQGTVGPLTSAGPA", "note": "[G73E]", "effect of a mutation on the interaction": "with no effect"}
{"variant": "MRLGLCVVALVLSWTHLTISSRGIKGKRQRRISAEGSQACAKGCELCSEVNGCLKCSPKLFILLERNDIRQVRVCLPSCPPGYFDARNPDMNKCIKCKIEHCEACFSHNFCTKCKEGLYLHKGRCYPACPEGSSAANGTMECSSPAQCEMSEWSPWGPCSKKQQLCGFRRGSEERTRRVLHAPVGDHAACSDTKETRRCTVRRVPCPEGQKRRKGGQGRRENANRNLARKESKEAGAGSRRRKGQQQQQQQGTVGPLTSAGPA", "note": "[G73R]", "effect of a mutation on the interaction": "with no effect"}
{"variant": "MRLGLCVVALVLSWTHLTISSRGIKGKRQRRISAEGSQACAKGCELCSEVNGCLKCSPKLFILLERNDIREVGVCLPSCPPGYFDARNPDMNKCIKCKIEHCEACFSHNFCTKCKEGLYLHKGRCYPACPEGSSAANGTMECSSPAQCEMSEWSPWGPCSKKQQLCGFRRGSEERTRRVLHAPVGDHAACSDTKETRRCTVRRVPCPEGQKRRKGGQGRRENANRNLARKESKEAGAGSRRRKGQQQQQQQGTVGPLTSAGPA", "note": "[Q71E]", "effect of a mutation on the interaction": "with no effect"}
{"variant": "MRLGLCVVALVLSWTHLTISSRGIKGKRQRRISAEGSQACAKGCELCSEVNGCLKCSPKLFILLERNDIRRVGVCLPSCPPGYFDARNPDMNKCIKCKIEHCEACFSHNFCTKCKEGLYLHKGRCYPACPEGSSAANGTMECSSPAQCEMSEWSPWGPCSKKQQLCGFRRGSEERTRRVLHAPVGDHAACSDTKETRRCTVRRVPCPEGQKRRKGGQGRRENANRNLARKESKEAGAGSRRRKGQQQQQQQGTVGPLTSAGPA", "note": "[Q71R]", "effect of a mutation on the interaction": "with no effect"}
